Measured values: the supplement of paper PMC5998384

Experiments:
HeLa Kyoto [1] = assay: solubility change mitosis vs G1/S (difference of NP-40 vs SDS log2 ratios) (log2 ratio difference); higher = more soluble in mitosis
HeLa Kyoto [2] = assay: melting temperature (median over replicates), in situ; higher = more thermally stable
HeLa Kyoto [3] = assay: solubility in G1/S (NP-40 vs SDS abundance) (log2 ratio); higher = more soluble; details: cell cycle stage: G1/S
HeLa Kyoto [4] = assay: thermal stability score vs G1/S (z-score of summed log2 fold changes over temperatures); higher = more thermally stable than in G1/S
[5] = cell cycle stage: early G1 (4.5 h after nocodazole release)
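Throughout, for melting temperature (median over replicates), in situ: HeLa Kyoto cells synchronized by double thymidine or nocodazole block, proteins quantified by TMT10plex mass spectrometry, three independent biological replicates.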
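Throughout, for solubility change mitosis vs G1/S (difference of NP-40 vs SDS log2 ratios): synchronized HeLa Kyoto cells (double thymidine block for G1/S, nocodazole release for mitosis), protein amounts in NP-40 versus SDS lysates quantified by mass spectrometry, three biological replicates.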
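Throughout, for solubility in G1/S (NP-40 vs SDS abundance): HeLa Kyoto cells arrested at G1/S by double thymidine block, proteins quantified by TMT10plex mass spectrometry in mild NP-40 versus SDS extracts, three biological replicates.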
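Throughout, for thermal stability score vs G1/S (z-score of summed log2 fold changes over temperatures): synchronized HeLa Kyoto cells, proteins quantified by TMT10plex mass spectrometry, three biological replicates, mitosis taken 0.5 h after nocodazole release, G1/S directly after double thymidine block.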

| Substance | solubility change mitosis (log2) (HeLa Kyoto [1]) | melting temperature (HeLa Kyoto [2]; cell cycle stage: G1/S) [°C] | melting temperature (HeLa Kyoto [2]; cell cycle stage: mitosis) [°C] | solubility in G1/S (log2) (HeLa Kyoto [3]) | thermal stability score (HeLa Kyoto [4]; [5]) | thermal stability score (HeLa Kyoto [4]; cell cycle stage: mitosis) |
| --- | --- | --- | --- | --- | --- | --- |
| MDVERLQEALKDFEKRGKKEVCPVLDQFLCHVAKTGETMIQWSQFKGYFIFKLEKVMDDFRTSAPEPRGPPNPNVEYIPFDEMKERILKIVTGFNGIPFTIQRLCELLTDPRRNYTGTDKFLRGVEKNVMVVSCVYPSSEKNNSNSLNRMNGVMFPGNSPSYTERSNINGPGTPRPLNRPKVSLSAPMTTNGLPESTDSKEANLQQNEEKNHSDSSTSESEVSSVSPLKNKHPDEDAVEAEGHEVKRLRFDKEGEVRETASQTTSSEISSVMVGETEASSSSQDKDKDSRCTRQHCTEEDEEEDEEEEEESFMTSREMIPERKNQEKESDDALTVNEETSEENNQMEESDVSQAEKDLLHSEGSENEGPVSSSSSDCRETEELVGSNSSKTGEILSESSMENDDEATEVTDEPMEQD [PPP4R2] | -0.111 | 51.2 | 51.7 | 0.000183 | -0.271 | -0.968 |
| MTMDKSELVQKAKLAEQAERYDDMAAAMKAVTEQGHELSNEERNLLSVAYKNVVGARRSSWRVISSIEQKTERNEKKQQMGKEYREKIEAELQDICNDVLELLDKYLIPNATQPESKVFYLKMKGDYFRYLSEVASGDNKQTTVSNSQQAYQEAFEISKKEMQPTHPIRLGLALNFSVFYYEILNSPEKACSLAKTAFDEAIAELDTLNEESYKDSTLIMQLLRDNLTLWTSENQGDEGDAGEGEN [YWHAB] | 0.402 | 52.6 | 52.8 | 0.324 | -1.46 | -2.76 |
| MGKRQHQKDKMYITCAEYTHFYGGKKPDLPQTNFRRLPFDHCSLSLQPFVYPVCTPDGIVFDLLNIVPWLKKYGTNPSNGEKLDGRSLIKLNFSKNSEGKYHCPVLFTVFTNNTHIVAVRTTGNVYAYEAVEQLNIKAKNFRDLLTDEPFSRQDIITLQDPTNLDKFNVSNFYHVKNNMKIIDPDEEKAKQDPSYYLKNTNAETRETLQELYKEFKGDEILAATMKAPEKKKVDKLNAAHYSTGKVSASFTSTAMVPETTHEAAAIDEDVLRYQFVKKKGYVRLHTNKGDLNLELHCDLTPKTCENFIRLCKKHYYDGTIFHRSIRNFVIQGGDPTGTGTGGESYWGKPFKDEFRPNLSHTGRGILSMANSGPNSNRSQFFITFRSCAYLDKKHTIFGRVVGGFDVLTAMENVESDPKTDRPKEEIRIDATTVFVDPYEEADAQIAQERKTQLKVAPETKVKSSQPQAGSQGPQTFRQGVGKYINPAATKRAAEEEPSTSATVPMSKKKPSRGFGDFSSW [PPIL2] | -0.019 | 47.5 | 48.4 | 0.00272 | 0.984 | 1.06 |
| MMEDDGQPRTLYVGNLSRDVTEVLILQLFSQIGPCKSCKMITEHTSNDPYCFVEFYEHRDAAAALAAMNGRKILGKEVKVNWATTPSSQKKDTSNHFHVFVGDLSPEITTEDIKSAFAPFGKISDARVVKDMATGKSKGYGFVSFYNKLDAENAIVHMGGQWLGGRQIRTNWATRKPPAPKSTQENNTKQLRFEDVVNQSSPKNCTVYCGGIASGLTDQLMRQTFSPFGQIMEIRVFPEKGYSFVRFSTHESAAHAIVSVNGTTIEGHVVKCYWGKESPDMTKNFQQVDYSQWGQWSQVYGNPQQYGQYMANGWQVPPYGVYGQPWNQQGFGVDQSPSAAWMGGFGAQPPQGQAPPPVIPPPNQAGYGMASYQTQ [TIAL1] | -0.0732 | 52.3 | 52 | 0.13 | -1.16 | -2.29 |
| MADPDVLTEVPAALKRLAKYVIRGFYGIEHALALDILIRNSCVKEEDMLELLKFDRKQLRSVLNNLKGDKFIKCRMRVETAADGKTTRHNYYFINYRTLVNVVKYKLDHMRRRIETDERDSTNRASFKCPVCSSTFTDLEANQLFDPMTGTFRCTFCHTEVEEDESAMPKKDARTLLARFNEQIEPIYALLRETEDVNLAYEILEPEPTEIPALKQSKDHAATTAGAASLAGGHHREAWATKGPSYEDLYTQNVVINMDDQEDLHRASLEGKSAKERPIWLRESTVQGAYGSEDMKEGGIDMDAFQEREEGHAGPDDNEEVMRALLIHEKKTSSAMAGSVGAAAPVTAANGSDSESETSESDDDSPPRPAAVAVHKREEDEEEDDEFEEVADDPIVMVAGRPFSYSEVSQRPELVAQMTPEEKEAYIAMGQRMFEDLFE [GTF2E1] | -0.0795 | 48.4 | 49.4 | -0.111 | 2.94 | 5.05 |
| MAAAEGPVGDGELWQTWLPNHVVFLRLREGLKNQSPTEAEKPASSSLPSSPPPQLLTRNVVFGLGGELFLWDGEDSSFLVVRLRGPSGGGEEPALSQYQRLLCINPPLFEIYQVLLSPTQHHVALIGIKGLMVLELPKRWGKNSEFEGGKSTVNCSTTPVAERFFTSSTSLTLKHAAWYPSEILDPHVVLLTSDNVIRIYSLREPQTPTNVIILSEAEEESLVLNKGRAYTASLGETAVAFDFGPLAAVPKTLFGQNGKDEVVAYPLYILYENGETFLTYISLLHSPGNIGKLLGPLPMHPAAEDNYGYDACAVLCLPCVPNILVIATESGMLYHCVVLEGEEEDDHTSEKSWDSRIDLIPSLYVFECVELELALKLASGEDDPFDSDFSCPVKLHRDPKCPSRYHCTHEAGVHSVGLTWIHKLHKFLGSDEEDKDSLQELSTEQKCFVEHILCTKPLPCRQPAPIRGFWIVPDILGPTMICITSTYECLIWPLLSTVHPASPPLLCTREDVEVAESPLRVLAETPDSFEKHIRSILQRSVANPAFLKASEKDIAPPPEECLQLLSRATQVFREQYILKQDLAKEEIQRRVKLLCDQKKKQLEDLSYCREERKSLREMAERLADKYEEAKEKQEDIMNRMKKLLHSFHSELPVLSDSERDMKKELQLIPDQLRHLGNAIKQVTMKKDYQQQKMEKVLSLPKPTIILSAYQRKCIQSILKEEGEHIREMVKQINDIRNHVNF [NUP88] | 0.171 | 50.4 | 48.8 | -0.268 | -1.46 | -0.755 |
| MSDTAVADTRRLNSKPQDLTDAYGPPSNFLEIDIFNPQTVGVGRARFTTYEVRMRTNLPIFKLKESCVRRRYSDFEWLKNELERDSKIVVPPLPGKALKRQLPFRGDEGIFEESFIEERRQGLEQFINKIAGHPLAQNERCLHMFLQEEAIDRNYVPGKVRQ [SNX12] | 0.12 | 49.2 | 50.7 | 0.348 | -0.501 | -1.12 |
| MAATRSPTRARERERSGAPAAGSDQVHSWMLATSQALDTVWRMAKGFVMLAVSFLVAAICYFRRLHLYSGHKLKWWIGYLQRKFKRNLSVEAEVDLLSYCAREWKGETPRNKLMRKAYEELFWRHHIKCVRQVRRDNYDALRSVLFQIFSQGISFPSWMKEKDIVKLPEKLLFSQGCNWIQQYSFGPEKYTGSNVFGKLRKYVELLKTQWTEFNGIRDYHKRGSMCNTLFSDAILEYKLYEALKFIMLYQVTEVYEQMKTKKVIPSLFRLLFSRETSSDPLSFMMNHLNSVGDTCGLEQIDMFILGYSLEVKIKVFRLFKFNSRDFEVCYPEEPLRDWPEISLLTENDRHYHIPVF [FAM105A] | -0.0882 | – | 52.7 | -0.437 | -0.702 | -1.45 |
| MEESGYESVLCVKPDVHVYRIPPRATNRGYRAAEWQLDQPSWSGRLRITAKGQMAYIKLEDRTSGELFAQAPVDQFPGTAVESVTDSSRYFVIRIEDGNGRRAFIGIGFGDRGDAFDFNVALQDHFKWVKQQCEFAKQAQNPDQGPKLDLGFKEGQTIKLNIANMKKKEGAAGNPRVRPASTGGLSLLPPPPGGKTSTLIPPPGEQLAVGGSLVQPAVAPSSGGAPVPWPQPNPATADIWGDFTKSTGSTSSQTQPGTGWVQF [NECAP2] | -0.251 | 52.6 | 52 | 0.173 | -0.264 | -1.02 |
| MSGEPGQTSVAPPPEEVEPGSGVRIVVEYCEPCGFEATYLELASAVKEQYPGIEIESRLGGTGAFEIEINGQLVFSKLENGGFPYEKDLIEAIRRASNGETLEKITNSRPPCVIL [MIEN1] | -0.0195 | 50.8 | 51.1 | 0.353 | -1.21 | 0.00566 |
| MFVPRSLKIKRNANDDGKSCVAKIIKPDPEDLQLDKSRDVPVDAVATEAATIDRHISESCPFPSPGGQLAEVHSVSPEQGAKDSHPSEEPVKSFSKTQRWAEPGEPICVVCGRYGEYICDKTDEDVCSLECKAKHLLQVKEKEEKSKLSNPQKADSEPESPLNASYVYKEHPFILNLQEDQIENLKQQLGILVQGQEVTRPIIDFEHCSLPEVLNHNLKKSGYEVPTPIQMQMIPVGLLGRDILASADTGSGKTAAFLLPVIMRALFESKTPSALILTPTRELAIQIERQAKELMSGLPRMKTVLLVGGLPLPPQLYRLQQHVKVIIATPGRLLDIIKQSSVELCGVKIVVVDEADTMLKMGFQQQVLDILENIPNDCQTILVSATIPTSIEQLASQLLHNPVRIITGEKNLPCANVRQIILWVEDPAKKKKLFEILNDKKLFKPPVLVFVDCKLGADLLSEAVQKITGLKSISIHSEKSQIERKNILKGLLEGDYEVVVSTGVLGRGLDLISVRLVVNFDMPSSMDEYVHQIGRVGRLGQNGTAITFINNNSKRLFWDIAKRVKPTGSILPPQLLNSPYLHDQKRKEQQKDKQTQNDLVTGANLMDIIRKHDKSNSQK [DDX59] | -0.18 | 50.8 | 50.3 | 0.419 | 1.04 | 1.76 |
| MPAESGKRFKPSKYVPVSAAAIFLVGATTLFFAFTCPGLSLYVSPAVPIYNAIMFLFVLANFSMATFMDPGIFPRAEEDEDKEDDFRAPLYKTVEIKGIQVRMKWCATCRFYRPPRCSHCSVCDNCVEEFDHHCPWVNNCIGRRNYRYFFLFLLSLTAHIMGVFGFGLLYVLYHIEELSGVRTAVTMAVMCVAGLFFIPVAGLTGFHVVLVARGRTTNEQVTGKFRGGVNPFTNGCCNNVSRVLCSSPAPRYLGRPKKEKTIVIRPPFLRPEVSDGQITVKIMDNGIQGELRRTKSKGSLEITESQSADAEPPPPPKPDLSRYTGLRTHLGLATNEDSSLLAKDSPPTPTMYKYRPGYSSSSTSAAMPHSSSAKLSRGDSLKEPTSIAESSRHPSYRSEPSLEPESFRSPTFGKSFHFDPLSSGSRSSSLKSAQGTGFELGQLQSIRSEGTTSTSYKSLANQTRNGSLSYDSLLTPSDSPDFESVQAGPEPDPPLGYTSPFLSARLAQQREAERHPRLVPTGPTHREPSPVRYDNLSRHIVASLQEREKLLRQSPPLPGREEEPGLGDSGIQSTPGSGHAPRTSSSSDDSKRSPLGKTPLGRPAVPRFGKPDGLRGRGVGSPEPGPTAPYLGRSMSYSSQKAQPGVSETEEVALQPLLTPKDEVQLKTTYSKSNGQPKSLGSASPGPGQPPLSSPTRGGVKKVSGVGGTTYEISV [ZDHHC5] | 0.124 | 59.1 | 62.7 | -0.172 | -2.84 | 1.5 |
| MAEFLDDQETRLCDNCKKEIPVFNFTIHEIHCQRNIGMCPTCKEPFPKSDMETHMAAEHCQVTCKCNKKLEKRLLKKHEETECPLRLAVCQHCDLELSILKLKEHEDYCGARTELCGNCGRNVLVKDLKTHPEVCGREGEEKRNEVAIPPNAYDESWGQDGIWIASQLLRQIEALDPPMRLPRRPLRAFESDVFHNRTTNQRNITAQVSIQNNLFEEQERQERNRGQQPPKEGGEESANLDFMLALSLQNEGQASSVAEQDFWRAVCEADQSHGGPRSLSDIKGAADEIMLPCEFCEELYPEELLIDHQTSCNPSRALPSLNTGSSSPRGVEEPDVIFQNFLQQAASNQLDSLMGLSNSHPVEESIIIPCEFCGVQLEEEVLFHHQDQCDQRPATATNHVTEGIPRLDSQPQETSPELPRRRVRHQGDLSSGYLDDTKQETANGPTSCLPPSRPINNMTATYNQLSRSTSGPRPGCQPSSPCVPKLSNSDSQDIQGRNRDSQNGAIAPGHVSVIRPPQNLYPENIVPSFSPGPSGRYGASGRSEGGRNSRVTPAAANYRSRTAKAKPSKQQGAGDAEEEEEE [TRAFD1] | -0.0897 | 53.8 | 53.9 | 0.132 | -1.71 | -2.27 |
| PCMT1 | 0.147 | 54 | 54.8 | 0.427 | 0.536 | -0.469 |
